Measured values as given in patent CN114106166A (VIRUS DISEASE PREVENTION AND CONTROL PLACE OF CHINESE …, dated 2022).

Legend:
新型冠状病毒Delta变体RBD蛋白 = target: T1, 新型冠状病毒Delta变体RBD蛋白 (SARS-CoV-2 Delta variant, UniProt P0DTC2 319-541); experiment: SPR, BIAcore 8000, RBD protein coupled to the chip, 1:1 binding fit
T1 construct: domain: RBD; also called 新冠Delta变体RBD蛋白

新型冠状病毒Omicron变体RBD蛋白 = target: T2, 新型冠状病毒Omicron变体RBD蛋白 (SARS-CoV-2 Omicron variant, UniProt P0DTC2 319-541); experiment: as above
T2 construct: domain: RBD

B1: 人源抗新冠病毒中和性抗体D2 (全抗体IgG) (antibody, V domains shown)
VH: EVQLVESGGGLVQPGRSLTLSCGASGFTFEDYAMHWVRQAPGKGLEWVSGIDWNSGVIGYADSVKGRFIISRDNAKNSLYLHMRSLTAEDTALYYCAKDVYSESGSGSYYDYWGQGTLVTVSS
VL: QSVLTQPPSVSAAPGQKVAISCSGSTSNIGDNFVSWYQQFPGTAPKLLLYDDARRPSGIPDRFSGSKSGTSATLGITGLQTGDEAVYFCSTWDNSLNVVLFGGGTKLTVL
notes: also called D2号抗体; 纯化D2抗体
Binder B1 has a Kd (新型冠状病毒Delta变体RBD蛋白) of 0.0621 nM and a Kd (新型冠状病毒Omicron变体RBD蛋白) of 0.011 nM.
